The numbers were not newly measured in paper PMC4245983, which cites them from elsewhere.

Data set [1] deals with IscU (Escherichia coli) (UniProt P0ACD4). The settings on record: cited from earlier work.
Data set [2] has the same target. The settings on record: cited from earlier work. The source holds these as a separate data set.

Like-named read-outs stand apart in the source and are kept apart here.

Chain of HscA (P0A6Z1 whole entry): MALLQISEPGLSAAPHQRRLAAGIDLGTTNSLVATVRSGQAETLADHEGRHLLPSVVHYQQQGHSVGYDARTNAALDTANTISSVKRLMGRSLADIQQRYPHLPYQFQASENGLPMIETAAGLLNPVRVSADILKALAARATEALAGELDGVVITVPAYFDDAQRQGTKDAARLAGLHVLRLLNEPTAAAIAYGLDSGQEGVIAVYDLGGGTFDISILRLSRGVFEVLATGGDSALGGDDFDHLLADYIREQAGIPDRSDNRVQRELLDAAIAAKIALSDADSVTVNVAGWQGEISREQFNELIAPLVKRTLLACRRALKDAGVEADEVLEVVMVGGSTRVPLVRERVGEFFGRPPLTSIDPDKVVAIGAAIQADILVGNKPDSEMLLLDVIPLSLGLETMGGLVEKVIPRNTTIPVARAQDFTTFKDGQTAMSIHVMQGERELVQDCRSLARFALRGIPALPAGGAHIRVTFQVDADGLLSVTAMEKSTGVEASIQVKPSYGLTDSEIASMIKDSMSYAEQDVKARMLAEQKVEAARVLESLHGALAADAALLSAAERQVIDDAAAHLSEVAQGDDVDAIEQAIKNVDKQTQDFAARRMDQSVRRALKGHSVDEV
Chain of IscU (Escherichia coli) (P0ACD4 whole entry): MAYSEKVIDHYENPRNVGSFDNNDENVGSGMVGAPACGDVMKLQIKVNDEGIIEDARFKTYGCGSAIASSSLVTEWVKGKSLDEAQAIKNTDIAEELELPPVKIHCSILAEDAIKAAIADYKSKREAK

On to HscA (from UniProt P0A6Z1), for which the figures for the dissociation constant Kd in data set [1] and in data set [2] were 1.6 µM and 37 µM, respectively.

As usually defined, the Kd is a measure of binding affinity in units of concentration.
